# Experimental data as given in paper PMC10215423, “The Diagnostic Potential of RNA Aptamers against the NS1 Protein of Dengue Virus Serotype 2”.
# Target: NS1 (dengue virus serotype 2) (Dengue virus serotype 2, UniProt P29990 776-1127)
# Assay: filter binding
# Details: protein: commercial; chain copies: 2
# Sequence of NS1 (dengue virus serotype 2) (P29990 776-1127): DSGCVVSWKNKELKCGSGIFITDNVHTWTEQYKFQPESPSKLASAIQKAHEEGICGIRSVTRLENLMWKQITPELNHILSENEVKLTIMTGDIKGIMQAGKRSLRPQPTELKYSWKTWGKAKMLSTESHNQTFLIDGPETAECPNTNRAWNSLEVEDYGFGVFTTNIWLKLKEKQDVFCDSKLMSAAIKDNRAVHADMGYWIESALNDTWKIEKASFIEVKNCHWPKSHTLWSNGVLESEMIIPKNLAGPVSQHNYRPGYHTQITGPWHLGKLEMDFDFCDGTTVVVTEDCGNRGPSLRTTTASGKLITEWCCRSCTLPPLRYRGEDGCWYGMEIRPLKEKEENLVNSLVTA
row,Binder,Kd
1,DENV-3 (structured_RNA) RNA: GGAGCUCAGCCUUCACUGCUUUGAUCUCGUGGGGGUGUGUCGCGGGAGACACCAUGGAAUAUAUGGCUGAUUUCAUGUGGGCACCACGGUCGGAUCCAC,37.6 ± 10.3 nM
2,DENV-6 (structured_RNA) RNA: GGAGCUCAGCCUUCACUGCCGUAGUCGUAUCUCCAUUACCCAGAAUGGUGAUGCGCCGUGAAGAGCGGUUUAGGGAAUUGGCACCACGGUCGGAUCCAC,41.4 ± 9.29 nM
